Molecular target: M.SssI Q142A/N370A (UniProt P15840 SEQ:1-386, Q142A,N370A)
Assay: Ado-6-amine 80 uM, no Mg, 37 C; modified deoxycytidine detected by HPLC/ESI-MS
Conditions: tags: His6

M.SssI Q142A/N370A, sequence (P15840 whole entry Q142A/N370A): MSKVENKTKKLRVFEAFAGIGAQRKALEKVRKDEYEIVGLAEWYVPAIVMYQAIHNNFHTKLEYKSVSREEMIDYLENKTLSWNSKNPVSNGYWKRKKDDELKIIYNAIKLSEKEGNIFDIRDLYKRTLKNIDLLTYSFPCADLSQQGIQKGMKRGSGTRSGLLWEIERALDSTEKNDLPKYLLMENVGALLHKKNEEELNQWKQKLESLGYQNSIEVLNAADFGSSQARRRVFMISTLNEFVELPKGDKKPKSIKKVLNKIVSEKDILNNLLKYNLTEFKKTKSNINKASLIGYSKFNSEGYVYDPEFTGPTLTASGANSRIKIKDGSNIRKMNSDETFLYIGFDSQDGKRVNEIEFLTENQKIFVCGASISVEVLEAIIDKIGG

B1: 24-mer duplex oligonucleotide (dsDNA)
DNA 1: GCATTACGCGCCAGGTCGTTTCGT
DNA 2: TACGAAACGACCTGGCGCGTAATG
binding result: binds

From patent US20130130922, “ANALYSIS OF METHYLATION SITES” (Centre for Addiction and Mental Health, published 2013)
